Data reported in US20140087995A1 (published 2014).
Residue numbers refer to the chain shown, from its start. Numbered stars: 1 amine (or outer) side, 2 acyl side, 3 side chain; on linkers, the order of the positions; unused ones are H or OH. Bridge positions count the residues as written; N and C are the ends. Side chains are listed from the residue outwards. Ends that are not written are not given here. * marks the point of attachment. C20 diacid = O=C(O)CCCCCCCCCCCCCCCCCCC(=O)*; γGlu = O=C(O)[C@H](CCC(=O)[*:2])N[*:1]; AEEA = NCCOCCOCC(=O)O

T1: human amylin receptor (amylin 3(a) receptor: human calcitonin receptor with RAMP-3) (human, UniProt P30988 25-474; O60896 24-148)
T1 construct: whole, on cells; also called hAmylin-R; hAmylinR
T1 sequence (looked up) 1: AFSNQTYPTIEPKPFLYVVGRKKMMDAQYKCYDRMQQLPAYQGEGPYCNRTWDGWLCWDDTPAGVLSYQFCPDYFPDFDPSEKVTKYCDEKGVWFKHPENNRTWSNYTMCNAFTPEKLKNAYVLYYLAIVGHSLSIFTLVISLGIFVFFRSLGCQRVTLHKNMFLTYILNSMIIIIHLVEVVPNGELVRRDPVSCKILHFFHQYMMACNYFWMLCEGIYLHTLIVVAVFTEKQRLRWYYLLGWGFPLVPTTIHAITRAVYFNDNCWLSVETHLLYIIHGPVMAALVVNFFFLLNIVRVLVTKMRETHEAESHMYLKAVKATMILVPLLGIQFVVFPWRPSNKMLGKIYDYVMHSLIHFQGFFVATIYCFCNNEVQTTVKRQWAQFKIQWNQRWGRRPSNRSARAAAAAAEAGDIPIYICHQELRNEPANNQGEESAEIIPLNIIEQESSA
T1 sequence (looked up) 2: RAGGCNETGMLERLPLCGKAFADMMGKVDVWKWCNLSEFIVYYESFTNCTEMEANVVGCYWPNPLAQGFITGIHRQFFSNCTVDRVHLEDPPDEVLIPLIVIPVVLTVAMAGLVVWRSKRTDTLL

T2: human calcitonin receptor (human, UniProt P30988 25-474)
T2 sequence (looked up): T1 sequence (looked up) 1

T3: human amylin 3(a) receptor (human calcitonin receptor co-expressed with RAMP-3) (human, UniProt P30988 25-474; O60896 24-148, limits assumed)
T3 sequence (looked up) 1: T1 sequence (looked up) 1
T3 sequence (looked up) 2: T1 sequence (looked up) 2

B1: N^ε1-[(4S)-4-carboxy-4-(19-carboxynonadecanoylamino)butanoyl]-[Arg17,Pro21,Pro27]-h-amylin (peptide)
peptide: K([γGlu-C20 diacid])CNTATCATQRLANFLRHSSPNFGAIPSSTNVGSNTY-NH2
modifications: disulfide 2-7; N-terminus assumed
SMILES: CC[C@H](C)[C@H](NC(=O)[C@H](C)NC(=O)CNC(=O)[C@H](Cc1ccccc1)NC(=O)[C@H](CC(N)=O)NC(=O)[C@@H]1CCCN1C(=O)[C@H](CO)NC(=O)[C@H](CO)NC(=O)[C@H](Cc1c[nH]cn1)NC(=O)[C@H](CCCNC(=N)N)NC(=O)[C@H](CC(C)C)NC(=O)[C@H](Cc1ccccc1)NC(=O)[C@H](CC(N)=O)NC(=O)[C@H](C)NC(=O)[C@H](CC(C)C)NC(=O)[C@H](CCCNC(=N)N)NC(=O)[C@H](CCC(N)=O)NC(=O)[C@@H](NC(=O)[C@H](C)NC(=O)[C@@H]1CSSC[C@H](NC(=O)[C@@H](N)CCCCNC(=O)CC[C@H](NC(=O)CCCCCCCCCCCCCCCCCCC(=O)O)C(=O)O)C(=O)N[C@@H](CC(N)=O)C(=O)N[C@@H]([C@@H](C)O)C(=O)N[C@@H](C)C(=O)N[C@@H]([C@@H](C)O)C(=O)N1)[C@@H](C)O)C(=O)N1CCC[C@H]1C(=O)N[C@@H](CO)C(=O)N[C@@H](CO)C(=O)N[C@H](C(=O)N[C@@H](CC(N)=O)C(=O)N[C@H](C(=O)NCC(=O)N[C@@H](CO)C(=O)N[C@@H](CC(N)=O)C(=O)N[C@H](C(=O)N[C@@H](Cc1ccc(O)cc1)C(N)=O)[C@@H](C)O)C(C)C)[C@@H](C)O
notes: also called 48; compound 48
B2: N^-1-[(4S)-4-carboxy-4-(19-carboxynonadecanoylamino)butanoyl]-Gly[Arg1,Arg17,Pro21,Pro27]-h-amylin (peptide)
peptide: {C20 diacid-γGlu}-GRCNTATCATQRLANFLRHSSPNFGAIPSSTNVGSNTY-NH2
modifications: disulfide 3-8
SMILES: CC[C@H](C)[C@H](NC(=O)[C@H](C)NC(=O)CNC(=O)[C@H](Cc1ccccc1)NC(=O)[C@H](CC(N)=O)NC(=O)[C@@H]1CCCN1C(=O)[C@H](CO)NC(=O)[C@H](CO)NC(=O)[C@H](Cc1c[nH]cn1)NC(=O)[C@H](CCCNC(=N)N)NC(=O)[C@H](CC(C)C)NC(=O)[C@H](Cc1ccccc1)NC(=O)[C@H](CC(N)=O)NC(=O)[C@H](C)NC(=O)[C@H](CC(C)C)NC(=O)[C@H](CCCNC(=N)N)NC(=O)[C@H](CCC(N)=O)NC(=O)[C@@H](NC(=O)[C@H](C)NC(=O)[C@@H]1CSSC[C@H](NC(=O)[C@H](CCCNC(=N)N)NC(=O)CNC(=O)CC[C@H](NC(=O)CCCCCCCCCCCCCCCCCCC(=O)O)C(=O)O)C(=O)N[C@@H](CC(N)=O)C(=O)N[C@@H]([C@@H](C)O)C(=O)N[C@@H](C)C(=O)N[C@@H]([C@@H](C)O)C(=O)N1)[C@@H](C)O)C(=O)N1CCC[C@H]1C(=O)N[C@@H](CO)C(=O)N[C@@H](CO)C(=O)N[C@H](C(=O)N[C@@H](CC(N)=O)C(=O)N[C@H](C(=O)NCC(=O)N[C@@H](CO)C(=O)N[C@@H](CC(N)=O)C(=O)N[C@H](C(=O)N[C@@H](Cc1ccc(O)cc1)C(N)=O)[C@@H](C)O)C(C)C)[C@@H](C)O
notes: also called 46; compound 46
B3: N^ε1-[(4S)-4-carboxy-4-[[(4S)-4-carboxy-4-(19-carboxynonadecanoylamino)butanoyl]amino]butanoyl]-[Asp14,Arg17,Pro21,Pro27,Arg35]-h-amylin (peptide)
peptide: K([γGlu-γGlu-C20 diacid])CNTATCATQRLADFLRHSSPNFGAIPSSTNVGSRTY-NH2
modifications: disulfide 2-7; N-terminus assumed
SMILES: CC[C@H](C)[C@H](NC(=O)[C@H](C)NC(=O)CNC(=O)[C@H](Cc1ccccc1)NC(=O)[C@H](CC(N)=O)NC(=O)[C@@H]1CCCN1C(=O)[C@H](CO)NC(=O)[C@H](CO)NC(=O)[C@H](Cc1c[nH]cn1)NC(=O)[C@H](CCCNC(=N)N)NC(=O)[C@H](CC(C)C)NC(=O)[C@H](Cc1ccccc1)NC(=O)[C@H](CC(=O)O)NC(=O)[C@H](C)NC(=O)[C@H](CC(C)C)NC(=O)[C@H](CCCNC(=N)N)NC(=O)[C@H](CCC(N)=O)NC(=O)[C@@H](NC(=O)[C@H](C)NC(=O)[C@@H]1CSSC[C@H](NC(=O)[C@@H](N)CCCCNC(=O)CC[C@H](NC(=O)CC[C@H](NC(=O)CCCCCCCCCCCCCCCCCCC(=O)O)C(=O)O)C(=O)O)C(=O)N[C@@H](CC(N)=O)C(=O)N[C@@H]([C@@H](C)O)C(=O)N[C@@H](C)C(=O)N[C@@H]([C@@H](C)O)C(=O)N1)[C@@H](C)O)C(=O)N1CCC[C@H]1C(=O)N[C@@H](CO)C(=O)N[C@@H](CO)C(=O)N[C@H](C(=O)N[C@@H](CC(N)=O)C(=O)N[C@H](C(=O)NCC(=O)N[C@@H](CO)C(=O)N[C@@H](CCCNC(=N)N)C(=O)N[C@H](C(=O)N[C@@H](Cc1ccc(O)cc1)C(N)=O)[C@@H](C)O)C(C)C)[C@@H](C)O
notes: also called compound 52
B4: N^α1-[2-[2-[2-[[2-[2-[2-[[(4S)-4-carboxy-4-(19-carboxynonadecanoylamino)butanoyl]amino]ethoxy]ethoxy]acetyl]amino]ethoxy]ethoxy]acetyl]-[Glu14,Arg17,Pro21,Pro27 … (peptide)
peptide: KCNTATCATQRLAEFLRHSSPNFGAIPSSTNVGSNTY
modifications: alpha-amino group of N-terminal Lys1 acylated with C20 diacid via linker gGlu-2xOEG; disulfide bridge Cys2-Cys7 and C-terminal amide as in human amylin
notes: also called compound 19
B5: N^α1-[(4S)-4-carboxy-4-(19-carboxynonadecanoylamino)butanoyl]-[Arg17,Pro21,Pro27,His34]-h-amylin (peptide)
peptide: B4 peptide with E14N, S34H
modifications: alpha-amino group of N-terminal Lys1 acylated with C20 diacid via linker gGlu; disulfide bridge Cys2-Cys7 and C-terminal amide as in human amylin
notes: also called compound 40
B6: N^ε-[2-[2-[2-[[(4S)-4-carboxy-4-(19-carboxynonadecanoylamino)butanoyl]amino]ethoxy]ethoxy]acetyl]Lys[Arg1,Arg17,Pro21,Pro27,His35]-h-amylin (peptide)
peptide: K([AEEA-γGlu-C20 diacid])RCNTATCATQRLANFLRHSSPNFGAIPSSTNVGSHTY-NH2
modifications: disulfide 3-8; N-terminus assumed
SMILES: CC[C@H](C)[C@H](NC(=O)[C@H](C)NC(=O)CNC(=O)[C@H](Cc1ccccc1)NC(=O)[C@H](CC(N)=O)NC(=O)[C@@H]1CCCN1C(=O)[C@H](CO)NC(=O)[C@H](CO)NC(=O)[C@H](Cc1c[nH]cn1)NC(=O)[C@H](CCCNC(=N)N)NC(=O)[C@H](CC(C)C)NC(=O)[C@H](Cc1ccccc1)NC(=O)[C@H](CC(N)=O)NC(=O)[C@H](C)NC(=O)[C@H](CC(C)C)NC(=O)[C@H](CCCNC(=N)N)NC(=O)[C@H](CCC(N)=O)NC(=O)[C@@H](NC(=O)[C@H](C)NC(=O)[C@@H]1CSSC[C@H](NC(=O)[C@H](CCCNC(=N)N)NC(=O)[C@@H](N)CCCCNC(=O)COCCOCCNC(=O)CC[C@H](NC(=O)CCCCCCCCCCCCCCCCCCC(=O)O)C(=O)O)C(=O)N[C@@H](CC(N)=O)C(=O)N[C@@H]([C@@H](C)O)C(=O)N[C@@H](C)C(=O)N[C@@H]([C@@H](C)O)C(=O)N1)[C@@H](C)O)C(=O)N1CCC[C@H]1C(=O)N[C@@H](CO)C(=O)N[C@@H](CO)C(=O)N[C@H](C(=O)N[C@@H](CC(N)=O)C(=O)N[C@H](C(=O)NCC(=O)N[C@@H](CO)C(=O)N[C@@H](Cc1c[nH]cn1)C(=O)N[C@H](C(=O)N[C@@H](Cc1ccc(O)cc1)C(N)=O)[C@@H](C)O)C(C)C)[C@@H](C)O
notes: also called 45; compound 45

Experiments:
[1] = target: T1, human amylin receptor (amylin 3(a) …); assay: SPA displacement of 125I-rat amylin, hAmylin 3(a) receptor membranes
Procedure, shortened: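 Membranes from BHK Amylin 3(a)/CRE-luc cells (35 ng/μL final) were mixed with SPA beads and test compounds in 50 mM Hepes pH 7.4 with 1 mM CaCl2, 5 mM MgCl₂, 0.1% OA and 0.02% Tween20. Incubation ran 120 min at 25° C with shaking; IC₅₀ came from one-site competition fitting.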

[2] = target: T2, human calcitonin receptor; assay: cell-based or functional assay
[3] = target: T3, human amylin 3(a) receptor (human …); assay: cell-based or functional assay

IC50 [1] [nM]	Ratio hCT/hAmylin funct. (hCTR EC50 over hAmylin-R EC50) [3]	hAmylin-R funct. EC50 (pM) [3] [pM]	further results	Binder
0.443	–	–	–	B1
0.195	–	–	–	B2
–	–	–	hCTR funct. EC50 [2]: 14.1 nM	B3
–	17.4	307	–	B4
–	16.4	164	–	B5
0.552	–	–	–	B6
